How the values were obtained:
Assay type in all cases: cell-based, human
HDF cells = experiment: O2°− production by P. acnes-stimulated HDF; details: 0.87 to 7 μM
Procedure: (§1) For experiences of stimulation with P. acnes, cells were incubated with the P. acnes suspension adjusted at the appropriate concentration, pre-treated for 1 h at 37° C. or not with fibrinogen recombinant peptides Fg1 and Fg2 at the concentrations 0.87, 1.75, 3.5 or 7 μM for the desired period of time at 37° C. in 5% CO2.
(§2) All cells lines (5·10^4 to 10^5 cells/well) were seeded in 96-well plates (Corning Costar, Brumath, France) and treated as previously described. After stimulation, cells were washed three times in PBS and incubated with 100 μl per wells of 5 μM DHE (for determination of O2^●−) or 5 μM H2-DCFDA (for determination of H2O2) for 30 min as described previously and fluorescence intensity was recorded every hour over a period of 5 h. Fluorescence excitation/emission maxima were for DHE: 480/610 nm and for H2-DCFDA: 507/525 nm. At the end of the experiment, the number of adherent cells was evaluated by the crystal violet assay as described below. O2^●−, and H2O2 were assayed by spectrofluorimetry on a Fusion spectrofluorimeter (PackardBell, Paris, France). Levels of ROS were calculated in each sample as follows: reactive oxygen species rate (arbitrary units/min/10^6 cells)=(fluorescence intensity [arbitrary units] at T5h—fluorescence intensity [arbitrary units] at To/300 minutes/number of adherent cells as measured by the crystal violet assay, and were expressed as arbitrary unit (A.U.).
(§3) To assess the efficacy of Fg1 recombinant peptide, the production of O2^∘− and H2O2 by HaCaT cells NHDK, THP-1, MRC5 and HDF stimulated by pretreated P. acnes strains 6919, RON and PIE was measured. The amount of ROS produced was compared to that produced by the stimulated cells with untreated bacteria. Production baseline was obtained by measuring ROS on unstimulated cells. The production of IL-1ß, IL-8, IL-12 and TNF-α was also measured in all conditions cited above. The measurement of the production of ROS is performed by spectrofluorimetry in the presence of specific fluorochromes directly on the monolayer cell. Measurement of cytokine production was performed in parallel on the cell culture supernatant.
(§4) Two sets of experiments were implemented: 1) The cells were stimulated (18 h at 37° C.) by P. acnes strains previously pretreated with Fg1 and Fg2 peptides at the final concentrations ranging from 0.87 to 7 μM for 1 h at 37° C.; and 2) The cells were pretreated first with Fg1 and Fg2 peptides at the final concentrations ranging from 0.87 to 7 μM for 24 h at 37° C. and stimulated (18 h at 37° C.) by P. acnes strains.

[1] = system: HaCaT, NHDK, ThP1, MRC5 and HDF cell lines; experiment: Cell viability (MTT) after treatment with Fg1 and Fg2 recombinant peptides; details: all 5 cell lines; 0.22 to 7 mM for 18 h at 37° C.
Procedure: FIG. 10: Evaluation of cell viability after treatment with the Fg1 and Fg2 recombinant peptides. Human immortalized and primary keratinocyte cell lines HaCaT and NHDK; immortalized monocytes cell line ThP1, and immortalized and primary fibroblast cell lines MRCS and HDF were incubated with Fg1 and Fg2 recombinant peptides with concentrations ranging from 0.22 to 7 mM for 18 h at 37° C. Cell viability was assessed using the MTT assay as described in Materials and Methods.
Crystal violet staining was used to determine the number of adherent cells in 96-well plates. Briefly, after incubation with the test compound, the culture medium was discarded and the cells were incubated with a 0.05% crystal violet solution (Sigma) for 30 min at room temperature. After washing with PBS, 100% methanol was added, and the absorbance was measured spectrophotometrically at 540 nm on an ELISA multiwell reader. The MTT ([…]) assay was performed to test cell viability in 96-well plates. […] After thorough mixing, the absorbance was measured at 540 nm.
Whole P. acnes bacteria are labelled by biotinylation, pre-treated or not with the peptides and contacted with the various cell lines. After removal of the unfixed bacteria, the adhesion activity was measured spectrophotometrically by using the streptavidin-peroxidase conjugate and a chromogenic substrate.

NHDK cells [2] = experiment: O2°− production by P. acnes-stimulated NHDK; details: 0.87 to 7 μM
Procedure: as §1, §2, §3, §4

NHDK cells [3] = experiment: IL-12 production by P. acnes-stimulated NHDK (ELISA); details: P. acnes RON, set I, bacteria first pretreated, 0.87 to 7 μM
Procedure: as §1
(§5) Human IL-1ß, IL-8, IL-12, hBD-2, and TNF-α protein concentration was measured in the supernatants of stimulated cells using various ELISA Set kits (Ready-Set-Go kit from eBioscience for acne experiments, and for psoriasis experiments the Duo set IL-8 kit from R&D Systems and the BD-2 Human Development (hBD-2) from Peprotech) according to the manufacturer's instructions. We used serial dilutions of recombinant human IL-1ß, IL-8, IL-12 and TNF-α for standard curve. The optical density was determined at 450 nm at a wavelength correction of 540 nm.
To assess the efficacy of Fg1 recombinant peptide, the production of O2^∘− and H2O2 by HaCaT cells NHDK, THP-1, MRC5 and HDF stimulated by pretreated P. acnes strains 6919, RON and PIE was measured. The amount of ROS produced was compared to that produced by the stimulated cells with untreated bacteria. Production baseline was obtained by measuring ROS on unstimulated cells. The production of IL-1ß, IL-8, IL-12 and TNF-α was also measured in all conditions cited above. […]

NHDK cells [4] = experiment: IL-8 production by P. acnes-stimulated NHDK (ELISA); details: 0.87 to 7 μM
Procedure: as §1, §5, §3, §4

[5] = P. acnes 6919, set I, bacteria first pretreated
[6] = P. acnes 6919, set II, cells first pretreated
[7] = P. acnes PIE, set I, bacteria first pretreated
[8] = P. acnes PIE, set II, cells first pretreated
[9] = P. acnes RON, set I, bacteria first pretreated
[10] = P. acnes RON, set II, cells first pretreated

B1: MKRMVSWSFHKLKTMKHLLLLLLCVFLVKSQGVNDNEEGFFSARGHRPLDKKREEAPSLRPAPPPISGGGYRARPAKAAATQKKVERKAPDAGGCLHADPDLGVLC (protein)
chain: MKRMVSWSFHKLKTMKHLLLLLLCVFLVKSQGVNDNEEGFFSARGHRPLDKKREEAPSLRPAPPPISGGGRARPAKAAATQKKVERKAPDAGGCLHADPDLGVLCMKRMVSWSFHKLKTMKHLLLLLLCVFLVKSQGVNDNEEGFFSARGHRPLDKKREEAPSLRPAPPPISGGGYRARPAKAAATQKKVERKAPDAGGCLHADPDLGVLC
modifications: GST fusion; fragment Fg1
notes: fragment of Bß chain of human fibrinogen having 106 amino acids; recombinant GST-fused peptide expressed in E. coli
**Q.** With B1 as the molecule, how does the “Inhibition of Superoxide anion (O2°−) production” value (“Inhibition of Superoxide anion” for short) (HDF cells; [5]) read?
**A.** pos

**Q.** What about the “Inhibition of Superoxide anion” value (HDF cells; [6]) of the same molecule?
**A.** pos

**Q.** And the “Inhibition of Superoxide anion” value (HDF cells; [7])?
**A.** pos

**Q.** And the “Inhibition of Superoxide anion” value (HDF cells; [8])?
**A.** pos

**Q.** And the “Inhibition of Superoxide anion” value (HDF cells; [9])?
**A.** pos

**Q.** And the “Inhibition of Superoxide anion” value (HDF cells; [10])?
**A.** pos

**Q.** What about the “Cytotoxic activity (cell viability, MTT)” value [1] of the same molecule?
**A.** no cytotoxic activity

**Q.** What about the “Inhibition of Superoxide anion” value (NHDK cells [2]; [5]) of the same molecule?
**A.** pos

**Q.** What about the “Inhibition of Superoxide anion” value (NHDK cells [2]; [6]) of the same molecule?
**A.** pos

**Q.** What about the “Inhibition of Superoxide anion” value (NHDK cells [2]; [7]) of the same molecule?
**A.** pos

**Q.** And the “Inhibition of Superoxide anion” value (NHDK cells [2]; [8])?
**A.** pos

**Q.** What about the “Inhibition of Superoxide anion” value (NHDK cells [2]; [9]) of the same molecule?
**A.** pos

**Q.** What about the “Inhibition of Superoxide anion” value (NHDK cells [2]; [10]) of the same molecule?
**A.** pos

**Q.** And the “Inhibition of Interleukine 12 (IL-12) production” value (NHDK cells [3])?
**A.** pos

**Q.** And the “Inhibition of Interleukine 8 (IL-8) production” value (“Inhibition … (IL-8) production” below) (NHDK cells [4]; [5])?
**A.** pos

**Q.** And the “Inhibition … (IL-8) production” value (NHDK cells [4]; [6])?
**A.** pos

**Q.** What about the “Inhibition … (IL-8) production” value (NHDK cells [4]; [7]) of the same molecule?
**A.** pos

**Q.** What about the “Inhibition … (IL-8) production” value (NHDK cells [4]; [8]) of the same molecule?
**A.** pos

**Q.** What about the “Inhibition … (IL-8) production” value (NHDK cells [4]; [9]) of the same molecule?
**A.** pos

**Q.** What about the “Inhibition … (IL-8) production” value (NHDK cells [4]; [10]) of the same molecule?
**A.** pos

Source: US10323078B2, “Isolated peptides and fragments thereof from fibrinogen for use as drugs, particularly in skin inflammatory diseases” (Universite Paris Descartes, priority 2015, dated 2019)
